The values below come from US20090274620A1 (WILEX, published 2009).

The experiment deals with G250 antigen (MN antigen), complete protein, aa 1-459 (UniProt Q16790 38-459). In words: immunohistochemistry of G250-negative cells transiently transfected with the complete cDNA.

B1: monoclonal antibody G250 (murine, from hybridoma DSM ACC 2526) (antibody, IgG1, V domains shown)
VH: DVKLVESGGGLVKLGGSLKLSCAASGFTFSNYYMSWVRQTPEKRLELVAAINSDGGITYYLDTVKGRFTISRDNAKNTLYLQMSSLKSEDTALFYCARHRSGYFSMDYWGQGTSVTVSS
VL: DIVMTQSQRFMSTTVGDRVSITCKASQNVVSAVAWYQQKPGQSPKLLIYSASNRYTGVPDRFTGSGSGTDFTLTISNMQSEDLADFFCQQYSNYPWTFGGGTKLEIK
notes: also called MAbG250; MabG250
B1: the binding result is “binds”.
